# From patent US20250368742A1
# Like-named read-outs stand apart in the source and are kept apart here.
# Columns and labels:
# [1] = target: shed MICA002 polypeptide (human) (UniProt Q29983); assay: capture ELISA (anti-hFc / antibody / shed antigen / biotin-6D4)
# [2] = target: shed MICB005 polypeptide (human) (UniProt Q29980); assay: as above
# [3] = target: shed MICA008 polypeptide (human) (UniProt Q29983); assay: as above
# [4] = target: shed MICA004 polypeptide (human) (UniProt Q29983); assay: as above
# [5] = target: shed MICA002 polypeptide (human) (UniProt Q29983); assay: ELISA: antibody titrated on anti-hFc plate, shed MICA002 captured, detection NKG2D-His + anti-His-HRP
# [6] = target: shed MICA002 polypeptide (human) (UniProt Q29983); assay: capture ELISA (anti-hFc / antibody / shed antigen / biotin-6D4); remark: listed apart in the source
# [7] = target: shed MICB005 polypeptide (human) (UniProt Q29980); assay: as above; remark: listed apart in the source
# [8] = target: shed MICA008 polypeptide (human) (UniProt Q29983); assay: as above; remark: listed apart in the source
# [9] = target: shed MICA004 polypeptide (human) (UniProt Q29983); assay: as above; remark: listed apart in the source
# [10] = target: shed MICA002 polypeptide (human) (UniProt Q29983); assay: as above; remark: listed apart in the source
# [11] = target: shed MICB005 polypeptide (human) (UniProt Q29980); assay: as above; remark: listed apart in the source
# [12] = target: shed MICA008 polypeptide (human) (UniProt Q29983); assay: as above; remark: listed apart in the source
# [13] = target: shed MICA004 polypeptide (human) (UniProt Q29983); assay: as above; remark: listed apart in the source
# [14] = target: shed MICA002 polypeptide (human) (UniProt Q29983); assay: as above; remark: listed apart in the source
# [15] = target: shed MICB005 polypeptide (human) (UniProt Q29980); assay: as above; remark: listed apart in the source
# [16] = target: shed MICA008 polypeptide (human) (UniProt Q29983); assay: as above; remark: listed apart in the source
# [17] = target: shed MICA004 polypeptide (human) (UniProt Q29983); assay: as above; remark: listed apart in the source
# [18] = target: shed MICA004 polypeptide (human) (UniProt Q29983); assay: ELISA: antibody titrated on anti-hFc plate, shed MICA004 captured, detection NKG2D-His + anti-His-HRP
# [19] = target: human MICB005 on cells (human); assay: flow cytometry on CHO-MICB005 cells; column Control_2w (control of the 2-week experiment)
# [20] = target: human MICB005 on cells (human); assay: flow cytometry on CHO-MICB005 cells; column Control_1w (control of the 1-week experiment)
# [21] = target: human MICB005 on cells (human); assay: flow cytometry on CHO-MICB005 cells; column HSA_2w (2 weeks in human serum at 37 C)
# [22] = target: human MICB005 on cells (human); assay: flow cytometry on CHO-MICB005 cells; column HSA_1w (1 week in human serum at 37 C)
# [23] = target: human MICA008 on cells (human); assay: flow cytometry, HeLa cells (MICA008)
# [24] = target: human MICA004 on cells (human); assay: flow cytometry, CHO cells, panel headed MICA004
binder,measurement,setting,value
"1D5 (antibody, human IgG1, kappa, V domains shown) VH: EIQLQQSGPELVKPGASVKVSCKASGYAFTSQNIYWVKQSHGKSLEWIGYIEPYNVVPMYNPKFKGKATLTVDKSSSSAYIHLNSLTSEDSAIYYCARSGSSNFDYWGQGTTLTVSS VL: EIILTQSPTTMAASPGEKITITCSASSSISSHYLHWYQQKSGFSPKLLIYRTSNLASGVPARFSGSGSGTSYSLTIGTMEAEDVATYYCQQGSSLPLTFGAGTKVEIKR",EC50,[1],0.019 µg/mL
same,Max OD450,[1],1.93
same,EC50,[2],0.026 µg/mL
same,Max OD450,[2],1.43
same,EC50,[3],0.024 µg/mL
same,Max OD450,[3],1.26
same,EC50,[4],0.023 µg/mL
same,Max OD450,[4],2.01
same,EC50,[5],0.071 µg/mL
same,EC50,[6],0.025 µg/mL
same,maxOD,[6],4.5
same,EC50,[7],0.043 µg/mL
same,maxOD,[7],3.83
same,EC50,[8],0.037 µg/mL
same,maxOD,[8],1.67
same,EC50,[9],0.035 µg/mL
same,maxOD,[9],2.8
same,EC50,[10],0.02 µg/mL
same,Max OD450,[10],3.42
same,EC50,[11],0.02 µg/mL
same,Max OD450,[11],2.81
same,EC50,[12],0.03 µg/mL
same,Max OD450,[12],0.41
same,EC50,[13],0.02 µg/mL
same,Max OD450,[13],2.76
same,EC50,[14],0.032 µg/mL
same,Max OD450,[14],1.86
same,EC50,[15],0.035 µg/mL
same,Max OD450,[15],1.54
same,EC50,[16],0.035 µg/mL
same,Max OD450,[16],1.39
same,EC50,[17],0.018 µg/mL
same,Max OD450,[17],1.94
same,EC50,[18],0.056 µg/mL
"13A9 (antibody, human IgG1, kappa, V domains shown) VH: QVQLQQSGAELVRPGTSVKVSCKASGYAFTNYLIEWVKQRPGQGLEWIGAINPGSGATNYNEKFKDKARLTADKSSNTAYLQFSSLTSDDSAVYFCARFLGNYFDNWGQGATLTVSS VL: DIQMTQSPASLSASVGETVTITCRASGNIHSYLAWYQQKQGKSPQLLVYYAETLADGVPSRFSGRGSGTQYSLKINSLQPEDFGSYFCQQFWTTPYTFGGGTKVEIKR",EC50,[1],0.176 µg/mL
same,Max OD450,[1],1.42
same,EC50,[2],0.088 µg/mL
same,Max OD450,[2],1.28
same,EC50,[3],0.191 µg/mL
same,Max OD450,[3],0.48
same,EC50,[4],0.47 µg/mL
same,Max OD450,[4],0.35
same,EC50,[5],0.06 µg/mL
same,EC50,[10],0.14 µg/mL
same,Max OD450,[10],3.1
same,EC50,[11],0.04 µg/mL
same,Max OD450,[11],2.91
same,EC50,[12],0.22 µg/mL
same,Max OD450,[12],0.15
same,EC50,[13],0.33 µg/mL
same,Max OD450,[13],0.89
same,EC50,[18],0.083 µg/mL
"3F9 (antibody, human IgG1, kappa, V domains shown) VH: QVQLVESGGGLVKPGGSLRLSCAASGFTFSNYAMSWIRQAPGKGLEWVSYISPGGDYIYYADSVKGRFTISRDNAKNSLYLQMNSLRAEDTAVYYCTTDRRHYGSYAMDYWGQGTLVTVSS VL: DIVMTQSPLSLPVTPGEPASISCRSSKSLLHSNLNTYLYWFLQKPGQSPQILIYRMSNLASGVPDRFSGSGSGTAFTLKISRVEAEDVGVYYCMQHLEYPFTFGPGTKLEIKR",EC50,[1],0.107 µg/mL
same,Max OD450,[1],1.82
same,EC50,[3],0.105 µg/mL
same,Max OD450,[3],1.15
same,EC50,[4],0.129 µg/mL
same,Max OD450,[4],1.83
same,EC50,[5],0.167 µg/mL
same,EC50,[6],0.131 µg/mL
same,maxOD,[6],3.96
same,EC50,[8],0.134 µg/mL
same,maxOD,[8],1.51
same,EC50,[9],0.255 µg/mL
same,maxOD,[9],2.7
same,EC50,[10],0.09 µg/mL
same,Max OD450,[10],3.3
same,EC50,[12],0.22 µg/mL
same,Max OD450,[12],0.34
same,EC50,[13],0.14 µg/mL
same,Max OD450,[13],2.49
same,EC50,[18],0.071 µg/mL
"h36B3GS (antibody, V domains shown) VH: QVQLVQSGAEVKKPGASVKVSCKASGYAFTKYNFYWVRQAPGQGLEWIGYIDPYFGGTVYNQKFKGKATLTVDKSTSTAYMELRSLRSDDTAVYYCATTDSYSLFTYWGQGTLVTVSS VL: DIQMTQSPSSLSASVGDRVTITCRASQDISNYLNWYQQTPGKAVKLLIYYTSRLHSGVPSRFSGSGSGTDYTLTISSLQPEDIATYFCLQGNTLPFTFGQGTKLEIK",EC50,[19],0.314 µg/mL
same,EC50,[20],0.295 µg/mL
same,EC50,[21],0.32 µg/mL
same,EC50,[22],0.26 µg/mL
"h36B3GA (antibody, V domains shown) VH: QVQLVQSGAEVKKPGASVKVSCKASGYAFTKYNFYWVRQAPGQGLEWIGYIDPYFGGTVYNQKFKGKATLTVDKSTSTAYMELRSLRSDDTAVYYCATTDAYSLFTYWGQGTLVTVSS VL: DIQMTQSPSSLSASVGDRVTITCRASQDISNYLNWYQQTPGKAVKLLIYYTSRLHSGVPSRFSGSGSGTDYTLTISSLQPEDIATYFCLQGNTLPFTFGQGTKLEIK",EC50 (read off the curve),[23],0.4 µg/mL
same,EC50 (read off the curve),[24],0.5 µg/mL
"#40 (antibody, V domains shown) VH: QVQLQQSGPELVKPGASVKVSCKASGYAFTKYNIYWVKQSHGKSLEWIGYIDPYNGGTVYNQKFKGKATLTVDKSSSTAYMHLNSLTSEDSAVYYCATTDGYSLFTYWGQGTLVTVSA VL: DIQMTQTTSSLSASLGDRVTITCSAGQGINNYLNWYQQKPDGTVKLLIFYTSSLQSGVPSRFSGSGSGADYSLTISNLEPEDIATYYCQQYSKLPLTFGAGTKLELK",EC50,[10],0.31 µg/mL
same,Max OD450,[10],2.89
same,EC50,[11],0.73 µg/mL
same,Max OD450,[11],0.17
same,EC50,[12],0.44 µg/mL
same,Max OD450,[12],0.13
same,EC50,[13],0.38 µg/mL
same,Max OD450,[13],1.22
